Results on one molecule are retold here after patent US20200369775A1 (Dana-Farber, published 2020).

Assay [1] addresses T1, CD25 (TAC), the α chain of IL-2 receptor (UniProt P01589 22-272, limits assumed).
T1 construct: whole, on cells; also called IL-2Rα; α subunit chain
T1 sequence (looked up): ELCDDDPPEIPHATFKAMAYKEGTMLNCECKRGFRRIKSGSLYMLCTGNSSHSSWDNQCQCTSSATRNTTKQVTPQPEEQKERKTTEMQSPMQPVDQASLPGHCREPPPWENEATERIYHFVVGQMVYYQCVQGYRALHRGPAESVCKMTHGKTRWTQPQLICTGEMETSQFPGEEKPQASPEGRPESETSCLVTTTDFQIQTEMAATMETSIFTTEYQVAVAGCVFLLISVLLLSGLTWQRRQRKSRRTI
In words: transiently transfected 293T cells, control experiment.

Assay [2] concerns the target T2, IL-2 receptor (IL-2R) complex of α, β and γ chains (UniProt P01589 22-272; P14784 27-551; P31785 23-369).
T2 construct: whole, on cells; co-expressed on transiently transfected 293T cells in the control experiment; also called IL-2Rs; the complex
T2 sequence (looked up) 1: T1 sequence (looked up)
T2 sequence (looked up) 2: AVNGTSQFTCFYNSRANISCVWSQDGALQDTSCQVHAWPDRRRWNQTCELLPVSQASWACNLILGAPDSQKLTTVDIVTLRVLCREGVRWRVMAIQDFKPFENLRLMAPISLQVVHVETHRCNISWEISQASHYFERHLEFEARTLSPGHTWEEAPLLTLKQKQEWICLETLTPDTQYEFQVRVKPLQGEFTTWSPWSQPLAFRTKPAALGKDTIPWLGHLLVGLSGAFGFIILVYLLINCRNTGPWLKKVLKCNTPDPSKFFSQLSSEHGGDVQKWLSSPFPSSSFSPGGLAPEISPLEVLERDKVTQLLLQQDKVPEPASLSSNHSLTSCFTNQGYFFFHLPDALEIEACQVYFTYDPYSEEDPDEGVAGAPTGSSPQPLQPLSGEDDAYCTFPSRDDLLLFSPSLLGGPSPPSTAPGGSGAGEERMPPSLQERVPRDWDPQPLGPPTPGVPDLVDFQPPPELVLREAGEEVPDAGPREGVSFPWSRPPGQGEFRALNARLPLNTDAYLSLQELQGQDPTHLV
T2 sequence (looked up) 3: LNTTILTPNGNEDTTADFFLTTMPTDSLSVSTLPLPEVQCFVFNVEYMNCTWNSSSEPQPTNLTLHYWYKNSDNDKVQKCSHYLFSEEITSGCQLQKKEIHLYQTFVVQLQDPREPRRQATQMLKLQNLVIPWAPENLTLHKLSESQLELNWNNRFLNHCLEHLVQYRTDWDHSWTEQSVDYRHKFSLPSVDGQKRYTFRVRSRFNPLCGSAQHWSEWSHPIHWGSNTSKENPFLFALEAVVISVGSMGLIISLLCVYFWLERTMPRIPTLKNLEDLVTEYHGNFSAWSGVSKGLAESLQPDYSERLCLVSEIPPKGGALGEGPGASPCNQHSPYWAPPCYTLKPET
Described as above.

Assay [3] addresses T3, IL-2 receptor β subunit chain (UniProt P14784 27-551).
T3 construct: whole, on cells; also called β chain; IL-2R β
T3 sequence (looked up): T2 sequence (looked up) 2
Described as above.

Assay [4] addresses T4, IL-2 receptor γ subunit chain (UniProt P31785 23-369).
T4 construct: whole, on cells; also called γ chain; IL-2R γ
T4 sequence (looked up): T2 sequence (looked up) 3
The description is as above.

For assay [5], the target named is T5, CC chemokine receptor 4 (CCR4) (human, UniProt P51679 1-360).
T5 construct: whole, on cells; Endogenous CCR4 on human T cell subsets and Mac-1 cells
T5 sequence (looked up): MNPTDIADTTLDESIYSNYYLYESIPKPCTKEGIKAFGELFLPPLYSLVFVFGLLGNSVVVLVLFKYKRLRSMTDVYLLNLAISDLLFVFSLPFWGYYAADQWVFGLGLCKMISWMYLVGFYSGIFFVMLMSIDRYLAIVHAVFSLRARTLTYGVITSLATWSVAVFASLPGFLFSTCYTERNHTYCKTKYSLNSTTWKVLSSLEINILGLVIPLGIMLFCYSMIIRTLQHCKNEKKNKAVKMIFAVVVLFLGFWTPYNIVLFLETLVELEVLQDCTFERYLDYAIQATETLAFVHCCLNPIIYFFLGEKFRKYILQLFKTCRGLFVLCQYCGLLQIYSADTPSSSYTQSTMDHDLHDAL
In words: depletion of CCR4+ tumor-primed T cells with antibody-conjugated beads, checked by flow cytometry. Here is the method: FIG. 4. The activity of tumor-primed T cells on IGROV-1 cells. (A) Tumor-primed T cells were stained by anti-CD3, CD4, CD8, CD25 and (B) CCR4 antibodies. CCR4-depleted tumor-primed T cells by mAb2-3-conjugated beads and T cell subsets in tumor-primed T cells were analyzed by flow cytometry. (C) Tumor-primed T cells and mAb2-3-depleted tumor-primed T cells were incubated with IGROV-1 cells for 24 and 48 hours and then the supernatant were harvested and detected the expression level of IFN-γ. […] (D) Intracellular IFN-γ staining of CD4 and CD8 T cells from coculture. Cells were harvested at 48 hours post-coculture; incubated for 6 h in the presence of brefeldin A; stained for CD3, CD4, and CD8; fixed in paraformaldehyde; permeabilized; and stained for intracellular IFN-γ. The cells were gated on lymphocytes by size and CD markers and analyzed by flow cytometry. (E) The cytotoxic activities of tumor-primed T cells and mAb2-3-depleted tumor primed T cells were further detected by LDH ELISA assay. All experiments represented triplicates in each time point with the means±S.D. and performed in two independent experiments. *, **, and *** represents student's t-test p value<0.05, 0.01, and 0.005, respectively.
To establish an OvCA xenograft bearing humanized mouse model, IGROV-1-specific T cells in vitro were created that could be tested subsequently for in vivo immunotherapy. […]

B1: mAb2-3 (isotype not stated for the experiment) (antibody, V domains shown)
VH: QVQLVQSGAEVKKPGASVKVSCKASGYTFASAWMHWMRQAPGQGLEWIGWINPGNVNTKYNEKFKGRATLTVDTSTNTAYMELSSLRSEDTAVYYCARSTYYRPLDYWGQGTLVTVSS
VL: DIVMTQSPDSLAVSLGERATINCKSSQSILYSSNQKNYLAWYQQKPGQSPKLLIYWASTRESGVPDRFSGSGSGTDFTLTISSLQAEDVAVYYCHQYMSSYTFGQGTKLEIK
As for B1, the binding result in assay [1] was “no binding”; in assay [2], “no binding”; in assay [3], “no binding”; in assay [4], “no binding”; in assay [5], “binds”.
